Results from the supplement of paper PMC10724198.
± gives the standard deviation of the averaged measurements.

System: Saccharomyces cerevisiae
Assay: protein stability index of tFT-peptide fusion (C-terminal peptide) (PSI (0-1 scale)); higher = more stable (slower turnover)
Conditions: genetic background: wild type; temperature: 30 C
Description: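 Multiplexed protein stability (MPS) profiling in S. cerevisiae. Random 12-aa peptides (tFT-X12 library) are fused to the C-terminus of a sfGFP-mCherry tandem fluorescent timer, after mCherry and a GGGS linker. Cells are FACS-sorted into 8 mCherry/sfGFP bins and deep-sequenced. The protein stability index (PSI) is the read-weighted bin average, scaled from 0 (unstable) to 1 (stable). Only peptides with >10 reads are reported; cells were grown at 30 °C in SC-His with glucose.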
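Further: PSI is a weighted mean of sequencing reads over stability bins, variants kept only with over 10 reads, mCherry proximal and sfGFP distal, peptide attached via GGGS linker.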

Sequence	protein stability index
GQCRTELVGLWE	0.664 ± 0.13
GQEGQIPPGNVH	0.709 ± 0.011
GQIVFDNSGSRW	0.6955 ± 0.0028
GQKKARGRGGGM	0.737 ± 0.0077
GQRKQKIKKKRK	0.647 ± 0.16
GQRTKSHSRGGP	0.648 ± 0.025
GQVACLVSREYT	0.69 ± 0.018
GQVCSWRCVCYL	0.6741 ± 0.0065
GRAVPKTHPGNL	0.7686 ± 0.0037
GRCIQHPYKVNI	0.679 ± 0.017
GRDFASNFRQLG	0.718 ± 0.026
GRDKLNEDRDKV	0.647 ± 0.0095
GRDPARPRPLAP	0.677 ± 0.046
GREEKQGAENRT	0.65 ± 0.018
GRFVTRAWARSW	0.639 ± 0.018
GRGEIQDRRCRG	0.668 ± 0.049
GRGFGFDITISS	0.712 ± 0.098
GRGGIGDGGPVW	0.6395 ± 0.00092
GRGGYGKESLYC	0.627 ± 0.031
GRGRFMPRDWYW	0.708 ± 0.028
GRGSGIAMGVWV	0.801 ± 0.19
GRGVQWRAVGWE	0.748 ± 0.041
GRGVVGLWVSGT	0.699 ± 0.021
GRGWGWALGWCG	0.698 ± 0.0095
GRIMRVPNENLT	0.696 ± 0.22

Sequence	protein stability index
GRKGVIAELIKI	0.659 ± 0.11
GRKTRSPFLVLM	0.5707 ± 0.002
GRLRLDAAGCMW	0.675 ± 0.048
GRNCGHSCANRP	0.696 ± 0.027
GRPFCLGVKMFL	0.673 ± 0.035
GRPGPSSPFLLP	0.702 ± 0.052
GRQKIESSEAQT	0.666 ± 0.022
GRRAGGTGAPSR	0.642 ± 0.016
GRRDVTFGTAFF	0.753 ± 0.052
GRRGGRLSWAPG	0.659 ± 0.017
GRRHNPRTSSAQ	0.756 ± 0.075
GRRLVHKVDWSL	0.666 ± 0.043
GRRNVGLKNSGL	0.645 ± 0.028
GRRRGGAVVEGV	0.678 ± 0.01
GRRVRAPADFKS	0.587 ± 0.02
GRSMWFIEFGLG	0.7578 ± 0.0057
GRSQGIWVSRGE	0.683 ± 0.028
GRTFPLATAPFL	0.687 ± 0.085
GRVFRGRNGRCM	0.7443 ± 0.0067
GRWEGLRGLGVG	0.647 ± 0.012
GRWRVLREVGAS	0.664 ± 0.01
GRYLIGKNKRVI	0.687 ± 0.011
GSAGSAVRNVVS	0.647 ± 0.051
GSANIDQEGVQY	0.781 ± 0.091
GSFPPPARARLS	0.677 ± 0.025

Sequence	protein stability index
GSFPRLPPSKSF	0.724 ± 0.14
GSFYGAVYVVPV	0.669 ± 0.03
GSGDRSGCGWRG	0.678 ± 0.025
GSGELYMGRLVE	0.676 ± 0.047
GSGTTGSLSYGV	0.695 ± 0.02
GSIVVVGVVEGG	0.729 ± 0.066
GSIWGVGWGQGV	0.682 ± 0.11
GSLFVNRNCTVS	0.697 ± 0.19
GSLPQLRAACRA	0.566 ± 0.023
GSMRRSSVTLSA	0.709 ± 0.065
GSMTGYVRVGEG	0.57 ± 0.0064
GSNMTQAMTAGG	0.656 ± 0.027
GSNQRRKGEHKP	0.623 ± 0.036
GSNQYLNNTYLI	0.64768 ± 0.00039
GSPSPLIALSRK	0.689 ± 0.0073
GSRGGVAYGRVG	0.741 ± 0.04
GSRGHLGRGGPG	0.727 ± 0.017
GSRSGPARTTGR	0.668 ± 0.024
GSRTHSMEDTTG	0.646 ± 0.0098
GSSPPSARVRLF	0.763 ± 0.03
GSSPVWRVAGAG	0.721 ± 0.061
GSSRRWPGGRTI	0.671 ± 0.073
GSSVRGSLGREI	0.711 ± 0.028
GSVGFRTGRHLV	0.615 ± 0.063
GSVLFPLPFRPF	0.64 ± 0.11

Sequence	protein stability index
GSVNGDTVGTQQ	0.708 ± 0.013
GSVSGCVGVMRG	0.641 ± 0.01
GSWRSFHVWYNS	0.571 ± 0.042
GTAFDGGELSEG	0.739 ± 0.045
GTGSEGVALRSG	0.6697 ± 0.001
GTGSVHYHRSGL	0.676 ± 0.016
GTGTNGPSSAKL	0.7399 ± 0.0056
GTHGVGGNIDLT	0.648 ± 0.013
GTLGYALPTPYE	0.6736 ± 0.0059
GTQSGGGGGKGG	0.683 ± 0.044
GTRGVFEVCMDG	0.704 ± 0.025
GTYGLCVWGRYL	0.633 ± 0.056
GTYPGAGWRYEW	0.694 ± 0.037
GVAGWGTVVGAQ	0.712 ± 0.07
GVAISSGNHINH	0.654 ± 0.12
GVAWGSGVGMMW	0.718 ± 0.029
GVCAVCRLGLVA	0.5574 ± 0.00072
GVCGGVGGWGVA	0.698 ± 0.019
GVCPPAGDAGGV	0.711 ± 0.018
GVEGDPESKGRV	0.696 ± 0.068
GVFEGLVYGGLC	0.719 ± 0.012
GVFVVGLSCSLR	0.5521 ± 0.0048
GVGAERCFVGVV	0.681 ± 0.077
